Experimental data published in patent US20150125397A1, “DUAL SPECIFIC BINDING PROTEINS DIRECTED AGAINST IMMUNE CELL RECEPTORS AND AUTOANTIGENS” (ABBVIE INC., priority 2013, published 2015).

Tests used:
Human IgM = Human IgM (Homo sapiens, UniProt P01871); assay: IgM binding assay (human IgM)
AM14 TLR9−/− B cells = assay: [3H]thymidine incorporation, BCR/TLR9 stimulation of AM14 TLR9-/- B cells; format: cell-based, mouse; settings: at 5 mg/ml; 24 hours, then 6 hours pulse
Excerpt: (§1) The AM14 B cell receptor (BCR) transgenic mouse has been described previously (Sweet et al. (2010) Autoimmun 43(8): 607-18). Briefly, AM14 is a BCR comprising the AM14 heavy chain and the Vk8 light chain that recognizes murine IgG2a (mIgG2a) of the “a” allotype. Between 95-98% of B cells in a mouse positive for the AM14 heavy chain and Vk8 light chain express the AM14 BCR. To generate AM14 B cells that are deficient in TLR9, TLR7 or FcγRIIB, the AM14 and Vk8 genes were bred to the appropriate knock out mice.
(§2) Primary murine B cells were purified by positive selection using BD Imag™ CD45R/B220 magnetic particles (BD Biosciences, San Jose, Calif.). Briefly, B cells were cultured in RPMI containing, pencillin-streptomycin, β-mercaptoethanol, and 5% heat-inactivated fetal calf serum (FCS) in 96 well flat bottom plates at a density of 4×10^5 cells/well. For stimulation through the BCR and TLR9, B cells were treated with a titration of 0.3 μg/ml-0.03 μg/ml of PA4 or 5 μg/ml to 0.15 μg/ml of a DVD-Ig protein (DVD3751, DVD3752, DVD3754, DVD3755, DVD3759 and DVD3760), unless otherwise noted. Cells were also treated with 1 μg/ml 1826, an experimental ligand for TLR9, as a control. After 24 hours, the cells were pulsed for 6 hours with [3H]thymidine (Perkin Elmer, Waltham Mass.). Incorporation of [3H]thymidine was quantified via a liquid scintillation beta counter (Trilux 1450 MicroBeta, PerkinElmer) according to standard methods.
(§3) DVD-Ig proteins DVD3751-DVD3760 were characterized by ^3H incorporation at […] according to the method of Example 2.6.

mIgM = target: T1, mIgM (Mus musculus, UniProt P01872); assay: IgM binding ELISA (mouse IgM); settings: mIgM-coated ELISA; half-log dilution 10 μg/ml-0.01 μg/ml
T1 sequence (P01872 1-454): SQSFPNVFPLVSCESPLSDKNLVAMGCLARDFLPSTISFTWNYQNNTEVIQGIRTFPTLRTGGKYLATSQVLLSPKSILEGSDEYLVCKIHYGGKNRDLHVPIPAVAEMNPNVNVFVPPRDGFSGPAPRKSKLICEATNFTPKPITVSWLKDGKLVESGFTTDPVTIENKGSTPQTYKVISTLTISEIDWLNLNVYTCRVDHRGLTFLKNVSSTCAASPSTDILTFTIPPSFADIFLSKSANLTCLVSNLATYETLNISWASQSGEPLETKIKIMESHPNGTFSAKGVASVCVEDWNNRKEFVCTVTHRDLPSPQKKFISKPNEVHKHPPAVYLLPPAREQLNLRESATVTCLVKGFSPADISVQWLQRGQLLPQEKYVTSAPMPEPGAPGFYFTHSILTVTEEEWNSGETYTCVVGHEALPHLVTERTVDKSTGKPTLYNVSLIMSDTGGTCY
Procedure: Reactivity of the DVD-Ig proteins with mIgM was determined by enzyme-linked immunosorbent assay (ELISA). Briefly, each well of an Ultra Cruz 96 well microtiter plate (Santa Cruz Biotechnology, Dallas, Tex.) was coated with mIgM at a concentration of 1 μg/ml in 100 μl of PBS. The plate was covered in plastic wrap and incubated overnight at 4° C. Each well of the plate was then washed 3× with 300 μl of PBST. After the final wash, 200 μl of blocking buffer (1% BSA in PBS) was added to each well and the plate incubated at RT for 2 hours. The plate was then washed as above. Rows B-H of the microtiter plate were filled with 100 μl of dilution buffer (1% BSA in PBST). The DVD-Ig proteins were then diluted to […] in dilution buffer and 147 μl of a DVD-Ig protein was added in duplicate to row A of a 96 well plate. For a ½ log dilution, 47 μl was transferred from row A to row B. The pipette tips were replaced with clean tips and 47 μl from row B was transferred to row C. The serial transfers were repeated as above until row G. To assess the binding of the secondary detection reagent to the coated IgM, the final transfer 47 μl was only transferred from G1-G10 to H1-H10 and wells H11 and H12 were left containing 100 μl of dilution buffer. To maintain a 100 μl assay volume, 47 μl was removed from wells H1-H10 and G11-G12 and discarded. After the serial dilution was completed, the plate was incubated for 1-2 hours at RT. The plate was washed as above and then 100 μl of horseradish peroxidase conjugated goat α-hIgG Fc specific, diluted 1:3,000 in dilution buffer, was added to each well. The plate was incubated for 1 hour at RT and then washed 4× as above. The plate was developed by adding 100 μl of 3′,3′,5′,5′-Tetramethylbenzidine (TMB) substrate solution to each well and incubating the plate in the dark for 10-15 minutes. The enzymatic reaction was stopped by adding 100 μl of 1M H2SO4 to each well. The plate was read at 450 nm on an EnVision 2102 multilabel reader (Perkin Elmer, Waltham, Mass.).
DVD-Ig proteins DVD3751-DVD3760 were characterized by IgM binding assay at half-log dilution starting at 10 μg/ml-0.01 μg/ml according to the method of Example 2.5.
IgM binding ELISA: Titrations of the DVD-Ig™ proteins (10 μg/ml to 0.01 μg/ml) were added to ELISA plates coated with murine IgM. Bound antibody was detected with biotinylated anti-human IgG and streptavidin-HRP. EC50 were calculated from the titration curve using Prism6.

AM14 WT B cells = assay: [3H]thymidine incorporation, BCR/TLR9 stimulation of AM14 WT B cells; format: cell-based, mouse; set-up: key to 3H incorporation AM14 WT, relative result: (X)-(XXX) indicates relative results; (XX): (X)-(XXX) indicates relative results; (X)-(XXX) indicates relative results; level of 3H incorporation / 3H incorporation AM14 WT: dose or concentration left out as unconfirmed; settings: for 3H incorporation AM14 WT: 24 hours, then 6 hours pulse
Excerpt: as §1, §2, §3

DNA = assay: Antinuclear antibody (ANA) test; format: binding; set-up: key to ANA score, relative result: (X)-(XXX) indicates relative results; (XX): (X)-(XXX) indicates relative results; (X)-(XXX) indicates relative results; settings: for ANA score / ANA score, relative result: ANA staining at 10 μg/ml
Procedure: The cloned BWR4 and PA4 antibodies as well as the DVD-Ig proteins were tested for ANA reactivity using the ANA test kit. Briefly, the DVD-Ig proteins and antibodies were diluted to […] in blocking buffer (1% BSA in PBS). The DVD-Ig proteins and antibodies were added to separate wells of an ANA slide at 50 μl/well and incubated in a moist chamber for 2 hours at room temperature (RT). The wells were then washed 3× with PBS. To detect bound antibodies, Alexa Fluor 488 conjugated goat α-human IgG (α-hIgG) was then added at a dilution of 1:1,000 and the slide incubated in a moist chamber for 1 hour. Unbound detecting antibody was removed by immersing the slide in a jar containing PBS and incubating for 10 minutes at RT with gentle rocking. The prior step was repeated 2× and 10 μl of Prolong® Gold Antifade was added to each well and a 24 mm×60 mm #1 cover glass seated on top. The covered slide was incubated overnight at RT and then sealed by applying clear nail polish to the edges. Binding of the DVD-Ig proteins and antibodies to the slides was assessed by fluorescence microscopy.
DVD-Ig proteins DVD3751-DVD3760 were characterized by antinuclear antibody (ANA) staining at 10 μg/ml according to the method of Example 2.4.
ANA: HEp-2 human tissue culture substrate slides were incubated with 5 μg/ml of the anti-DNA-IgG2a or the DVD-Ig™ binding protein for 2 hours at RT. The slides were washed and bound antibodies were detected with Alexa-488 goat anti-human antibody or DyLight 488 goat anti-mouse antibody.

Human IgM, sequence (P01871 1-433 limits assumed): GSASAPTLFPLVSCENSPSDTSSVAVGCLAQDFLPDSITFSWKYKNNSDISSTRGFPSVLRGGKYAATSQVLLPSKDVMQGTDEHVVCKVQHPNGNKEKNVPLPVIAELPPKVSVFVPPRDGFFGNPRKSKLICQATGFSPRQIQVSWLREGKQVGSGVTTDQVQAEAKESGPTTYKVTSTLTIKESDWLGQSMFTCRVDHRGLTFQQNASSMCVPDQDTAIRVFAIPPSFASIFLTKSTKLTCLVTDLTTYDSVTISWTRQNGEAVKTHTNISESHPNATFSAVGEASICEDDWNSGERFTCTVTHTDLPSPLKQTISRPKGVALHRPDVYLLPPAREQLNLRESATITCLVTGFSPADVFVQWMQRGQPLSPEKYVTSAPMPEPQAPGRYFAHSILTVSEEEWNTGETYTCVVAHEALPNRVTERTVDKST
Human IgM, sequence (P01591 23-159 partner): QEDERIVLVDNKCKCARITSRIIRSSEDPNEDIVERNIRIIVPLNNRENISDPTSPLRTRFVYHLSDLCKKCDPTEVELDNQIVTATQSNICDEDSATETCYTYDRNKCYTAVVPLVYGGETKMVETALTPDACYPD

B1: DVD3767: DVD-Ig: VD1 hIgM (HB-57.3), SS linker, VD2 DNA (PA4); heavy SEQ ID NO 78, light 79 (antibody)
heavy: QVQLQQPGAEFVKPGAPVKLSCKASGYPFTTYWVNWMKQRPGRGLEWIGRIDPYDSETLYNQKFKDKATLTVDKSSSTAYIQLSSLTSEDSAVYYCARETYDYPFAYWGQGTLVTVSSASTKGPEVQLVESGGGLVKPGGSLKLSCVASGFTFSTYAMSWVRQTPTKRLEWVATISRGGVSTYYPDTVKGRFTISRDNAKNTLYLQMSSLRSEDTAMYYCARPPTIVTTWFAYWGQGTLVTVSS
light: DIVMTQSPSSLAMSVGQKVTMSCKSSQSLLNSSNQKNYLAWYQQKPGQSPELLVYFASTRESGVPDRFIGSGSGTDFTLTISSVQAEDLADYFCQQHYSTPFTFGSETKLEIKRTVAAPDVVMTQTPLSLPVSLGDQASISCRSSQSLVHSNGNTYLHWYLQKPGQSPKLLIYKVSNRFSGVPDRFSGSGSGTDFTLKISRVEAEDLGAYFCSQSTHVPYTFGGPTRLEIKR
potency in human IgM binding assay (Human IgM): highest potency

B2: DVD3751: DVD-Ig: VD1 DNA(PA4), GS linker, VD2 mIgM (B7.6); heavy SEQ ID NO 48, light 49 (antibody)
heavy: EVQLVESGGGLVKPGGSLKLSCVASGFTFSTYAMSWVRQTPTKRLEWVATISRGGVSTYYPDTVKGRFTISRDNAKNTLYLQMSSLRSEDTAMYYCARPPTIVTTWFAYWGQGTLVTVSSGGGGSGGGGSQVQLKESGPGLVKPSLTLSLTCTVSGFSLNGYGVIWVRQPPGKGLEWMGVIWGNGNTNYNSTLKSRLSISRDTSKSQVFLKMNNLQTEDTAMYFCARSENYYSSPGYFAYWGQGTLVTVSS
light: DVVMTQTPLSLPVSLGDQASISCRSSQSLVHSNGNTYLHWYLQKPGQSPKLLIYKVSNRFSGVPDRFSGSGSGTDFTLKISRVEAEDLGAYFCSQSTHVPYTFGGPTRLEIKRGGSGGGGSGNTVMTQSPTSMFISVGDRVTMNCKASQNVGSDVDWYQQKTGQSPKLLISGTSNRYTGVPDRFTGSGSGTDFTLTISNMQAEDLAVYYCLQYNYNPTFGAGTKLELKR
3H incorporation AM14 TLR9−/− (AM14 TLR9−/− B cells): (1184) | IgM Binding EC50 (mIgM): 0.1909 µg/mL | 3H incorporation AM14 WT, relative result (AM14 WT B cells): (XXX) | 3H incorporation AM14 WT (AM14 WT B cells): (35554) | level of 3H incorporation (AM14 WT B cells; among DVD3751-DVD3760): highest level of ^3H incorporation | ANA score (DNA): 2 | ANA score, relative result (DNA): (X)

B3: DVD3766: DVD-Ig: VD1 hIgM (HB-57.3), GS linker, VD2 DNA (PA4); heavy SEQ ID NO 76, light 77 (antibody)
heavy: QVQLQQPGAEFVKPGAPVKLSCKASGYPFTTYWVNWMKQRPGRGLEWIGRIDPYDSETLYNQKFKDKATLTVDKSSSTAYIQLSSLTSEDSAVYYCARETYDYPFAYWGQGTLVTVSSGGGGSGGGGSEVQLVESGGGLVKPGGSLKLSCVASGFTFSTYAMSWVRQTPTKRLEWVATISRGGVSTYYPDTVKGRFTISRDNAKNTLYLQMSSLRSEDTAMYYCARPPTIVTTWFAYWGQGTLVTVSS
light: DIVMTQSPSSLAMSVGQKVTMSCKSSQSLLNSSNQKNYLAWYQQKPGQSPELLVYFASTRESGVPDRFIGSGSGTDFTLTISSVQAEDLADYFCQQHYSTPFTFGSETKLEIKRGGSGGGGSGDVVMTQTPLSLPVSLGDQASISCRSSQSLVHSNGNTYLHWYLQKPGQSPKLLIYKVSNRFSGVPDRFSGSGSGTDFTLKISRVEAEDLGAYFCSQSTHVPYTFGGPTRLEIKR
potency in human IgM binding assay (Human IgM): highest potency

B4: DVD3755: DVD-Ig: VD1 DNA(PA4), LS linker, VD2 mIgM (B7.6); heavy SEQ ID NO 56, light 57 (antibody)
heavy: EVQLVESGGGLVKPGGSLKLSCVASGFTFSTYAMSWVRQTPTKRLEWVATISRGGVSTYYPDTVKGRFTISRDNAKNTLYLQMSSLRSEDTAMYYCARPPTIVTTWFAYWGQGTLVTVSSASTKGPSVFPLAPQVQLKESGPGLVKPSLTLSLTCTVSGFSLNGYGVIWVRQPPGKGLEWMGVIWGNGNTNYNSTLKSRLSISRDTSKSQVFLKMNNLQTEDTAMYFCARSENYYSSPGYFAYWGQGTLVTVSS
light: DVVMTQTPLSLPVSLGDQASISCRSSQSLVHSNGNTYLHWYLQKPGQSPKLLIYKVSNRFSGVPDRFSGSGSGTDFTLKISRVEAEDLGAYFCSQSTHVPYTFGGPTRLEIKRTVAAPNTVMTQSPTSMFISVGDRVTMNCKASQNVGSDVDWYQQKTGQSPKLLISGTSNRYTGVPDRFTGSGSGTDFTLTISNMQAEDLAVYYCLQYNYNPTFGAGTKLELKR
3H incorporation AM14 TLR9−/− (AM14 TLR9−/− B cells): (402) | IgM Binding EC50 (mIgM): 0.09709 µg/mL | 3H incorporation AM14 WT, relative result (AM14 WT B cells): (X) | 3H incorporation AM14 WT (AM14 WT B cells): (8498) | level of ANA staining (DNA; 10 μg/ml, among DVD3751-DVD3760): highest level of staining | ANA score (DNA): 4.5 | ANA score, relative result (DNA): (XXX)
